The chains are these.
B1: HDV Ribozyme (parent)
chain: GGCCGGCAUGGUCCCAGCCUCCUCGCUGGCGCCGGCUGGGCAACAUUCCGAGGGGACCGUCCCCUCGGUAAUGGCGAAUGGGACCCA

Variants of B1 are the subject of this data set. Description: self-cleavage, relative activity (ratio to wild type); higher = more cleavage; co-transcriptional.
For the variant G1U A78C, the self-cleavage was 0.293.
To G1U G81A belongs 0.25; to G2A C24A, 0.0815; to G1U C85G, 0.383.
In the case of G2A U72G, the self-cleavage stood at 0.0906.
In the case of G2A U72C, the self-cleavage was 0.0455.
Take G1C C18A: the self-cleavage was 0.123.
With G1C C18U, the self-cleavage was 0.0437.
Regarding G1U G5U, the self-cleavage worked out at 0.402.
Regarding G1U G5C, the self-cleavage came to 0.755.
To G2U A8C belongs 0; to G2C C58U, 0.0256.
For the variant G2C G81U, the self-cleavage worked out at 0.0203.
As for G2C G81C, the self-cleavage was 0.0583.
On to G1C G68U, for which the self-cleavage came to 0.17.
For G1C C13G, the self-cleavage was 0.0791.
In the case of G1C C61A, the self-cleavage turned out to be 0.208.
In the case of G2C A83U, the self-cleavage was 0.0791.
Consider G2U C14A, for which the self-cleavage was found to be 0.12.
In the case of G1A C66G, the self-cleavage was 0.308.
For G1C C4U, the self-cleavage stood at 0.0489.
As for G2U C3A, the self-cleavage turned out to be 0.0484.
To G1C A45C belongs 0.145.
As to G1U G28U, the self-cleavage is 0.295.
To G2A G74C belongs 0.0811.
Consider G2A G74U, for which the self-cleavage worked out at 0.073.
To G2C A51C belongs 0.0308; to G2C A51U, 0.0468.
On to G2C G6A, for which the self-cleavage was 0.0839.
For G2C G6C, the self-cleavage worked out at 0.0386.
Turning to G2C C62G, the self-cleavage was found to be 0.0852.
On to G2A C7A, for which the self-cleavage was determined as 0.
On to G2A C3G, for which the self-cleavage amounted to 0.123.
For G1A G80U, the self-cleavage amounted to 0.0133.
In the case of G2A G82U, the self-cleavage amounted to 0.0468.
Take G2A G82A: the self-cleavage was determined as 0.0852.
To G1A G82A belongs 0.
G1A G82U: the self-cleavage was 0.095.
As for G1C C63G, the self-cleavage amounted to 0.0639.
G1C C63A: the self-cleavage came to 0.201.
With G2U A42C, the self-cleavage came to 0.0297.
Take G2C C7U: the self-cleavage stood at 0.089.
To G2C C15G belongs 0; to G2C C15A, 0.0297.
Take G1A G39U: the self-cleavage amounted to 0.135.
With G2A C85U, the self-cleavage is 0.115.
Take G2C U9A: the self-cleavage came to 0.0755.
Regarding G1C U72C, the self-cleavage was 0.111.
As for G1C U72A, the self-cleavage came out at 0.32.
Regarding G1A A42C, the self-cleavage amounted to 0.0369.
Regarding G1A A42U, the self-cleavage turned out to be 0.123.
For G1A U60C, the self-cleavage is 0.166.
G2C C66U: the self-cleavage stood at 0.0373.
Consider G1U G40A, for which the self-cleavage was 0.426.
Consider G1U G40U, for which the self-cleavage is 0.225.
G2C U47A: the self-cleavage came to 0.0208.
G2C G53C: the self-cleavage came out at 0.125.
Consider G2A C63A, for which the self-cleavage was 0.198.
To G1U C19U belongs 0.28; to G1U G80C, 0.272.
For G1U G80A, the self-cleavage came out at 0.355.
With G1A A45U, the self-cleavage was 0.208.
Turning to G1U C49G, the self-cleavage was found to be 0.181.
For the variant G2A U60G, the self-cleavage was determined as 0.314.
Turning to G2A U60A, the self-cleavage was determined as 0.208.
To G1A C7U belongs 0.0475.
As to G1U G82U, the self-cleavage is 0.389.
On to G1U G82C, for which the self-cleavage stood at 0.47.
Take G1U G82A: the self-cleavage turned out to be 0.241.
Regarding G2C C48U, the self-cleavage is 0.0923.
To G1C U47A belongs 0.256; to G2C G11C, 0.155; to G1U G17A, 0.212.
For G2A G80C, the self-cleavage was determined as 0.0378.
With G2A G80A, the self-cleavage is 0.0735.
Regarding G1A G53C, the self-cleavage was 0.
On to G1A G53U, for which the self-cleavage was 0.0386.
As for G1A C19G, the self-cleavage is 0.0875.
As to G2C C49U, the self-cleavage was 0.132.
To G2C C49A belongs 0.0594; to G1C U9A, 0.0978; to G2C G29C, 0.109.
For G2C C4A, the self-cleavage amounted to 0.0282.
Regarding G2C C4G, the self-cleavage is 0.794.
To G1U G35A belongs 0.192; to G1U G35U, 0.288; to G1A A8G, 0.166.
In the case of G2A U27C, the self-cleavage turned out to be 0.125.
To G2A G28C belongs 0.0415.
For G2A G28U, the self-cleavage turned out to be 0.0364.
To G1C belongs 0.179; to G1A, 0.143; to G1U, 0.391.
With G1U C36A, the self-cleavage came to 0.158.
With G1C G38A, the self-cleavage is 0.
Turning to G1A A71C, the self-cleavage is 0.145.
To G1A A71U belongs 0.256.
On to G1U U47C, for which the self-cleavage came out at 0.475.
To G1C U46C belongs 0.229.
In the case of G2C U65G, the self-cleavage worked out at 0.0264.
For G2A G76U, the self-cleavage was 0.332.
To G1C C14U belongs 0.213.
In the case of G2A C32U, the self-cleavage came to 0.194.
Consider G2A U23A, for which the self-cleavage worked out at 0.219.
As for G2A U23C, the self-cleavage stood at 0.0511.
To G2A U23G belongs 0.0886; to G2A G34A, 0.0536; to G1A G38A, 0.0332.
To G1A G38U belongs 0.0845.
To G2C C57U belongs 0.073; to G1U C4G, 0.634.
With G1C C33A, the self-cleavage was 0.222.
To G1C U37A belongs 0; to G1C G35U, 0.155.
Regarding G1U U46A, the self-cleavage came out at 0.443.
Take G1A U37C: the self-cleavage came to 0.217.
As for G1A U37G, the self-cleavage is 0.158.
In the case of G2A C36G, the self-cleavage turned out to be 0.0764.
As to G2A C36U, the self-cleavage is 0.537.
G2A A51G: the self-cleavage turned out to be 0.141.
For G1A G40C, the self-cleavage was 0.0437.
To G1A G40U belongs 0.0615; to G1A G40A, 0.119; to G1A G73U, 0.0545.
G1U G73C: the self-cleavage stood at 0.231.
As to G1U G73U, the self-cleavage was 0.422.
As for G2A C19U, the self-cleavage stood at 0.
Take G1A C58U: the self-cleavage is 0.158.
With G1A C58G, the self-cleavage was 0.0665.
Take G1C G53A: the self-cleavage came to 0.193.
For the variant G1C C26U, the self-cleavage came to 0.0898.
Take G2C C26G: the self-cleavage was determined as 0.113.
To G2A C15G belongs 0.0277.
Regarding G1U C48U, the self-cleavage amounted to 0.415.
Consider G1U U27A, for which the self-cleavage was 0.44.
G2A C84G: the self-cleavage was 0.0391.
On to G1C G25C, for which the self-cleavage worked out at 0.
To G2U A71C belongs 0.0161; to G2C C21G, 0.0396.
For the variant G2C C21U, the self-cleavage was found to be 0.0615.
For the variant G2A G29A, the self-cleavage amounted to 0.0288.
To G1A A51C belongs 0.0831; to G1C C57A, 0.284; to G1U C75G, 0.162.
Consider G2C A77C, for which the self-cleavage turned out to be 0.
Take G2A C13A: the self-cleavage amounted to 0.0231.
On to G2A C13G, for which the self-cleavage was determined as 0.0282.
To G1U C18A belongs 0.304; to G1U C18U, 0.315.
On to G2C A70C, for which the self-cleavage is 0.0248.
To G1U G2C belongs 0.519; to G1U G2U, 0.366; to G1C G31A, 0.0302.
Take G1C C3A: the self-cleavage was 0.234.
Take G2A A71U: the self-cleavage is 0.106.
With G1A G59U, the self-cleavage was found to be 0.214.
To G1A G59A belongs 0.0573; to G1A G59C, 0.229; to G1U C24G, 0.447.
Consider G1U C24A, for which the self-cleavage was 0.183.
To G2U C15A belongs 0.0231; to G1A C86G, 0.185.
Consider G1A U65A, for which the self-cleavage is 0.0692.
With G2C G38U, the self-cleavage amounted to 0.0764.
On to G2C G67C, for which the self-cleavage turned out to be 0.113.
To G1A C44A belongs 0.0426.
On to G1A G17U, for which the self-cleavage came out at 0.0449.

Values taken from the RNAGym collection of RNA variant scans (doi:10.7554/elife.80360).
